# Test results as given in patent publication US20070148201A1 (Pieris, published 2007).
# T1: RNaseB (UniProt P61823 27-150)
# T1 construct: also called unrelated control protein RNaseB
# T1 sequence (looked up): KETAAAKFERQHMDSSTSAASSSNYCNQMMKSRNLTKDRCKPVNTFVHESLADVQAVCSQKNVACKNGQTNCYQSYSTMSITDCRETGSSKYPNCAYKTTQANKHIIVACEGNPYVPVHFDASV
# B1: BBP mutein CD47-G6 (designed binder)
# chain: DVYHDGACPEVKPVDNFDWSQYHGKWWEVAKYPNRREKFGKCGWAEYTPEGKSVKVSNYHVIRWGERFIEGTAYPVGDSKIGKIYHSLTLPGYTKENVFNVLSTDNKNYIIGYYCKYLERLKGHADFVWVLSRSMVLTGEAKTAVENYLIGSPVVDSQKLVYSDFSEAACKVNN
# B2: BBP mutein Fer-P4 (designed binder)
# chain: DVYHDGACPEVKPVDNFDWSQYHGKWWEVAKYPSKGGEKGKCGWAEYTPEGKSVKVSRYDVILSSEPFMEGTAYPVGDSKIGKIYHSRTKKGETKKTVFNVLSTDNKNYIIGYSCGYCECRKGHADHVWVLSRSMVLTGEAKTAVENYLIGSPVVDSQKLVYSDFSEAACKVNN
# notes: Tested as expressed from pBBP47: C-terminal T7 tag followed by Strep-tag II
# B3: BBP mutein Fer-O20 (designed binder)
# chain: DVYHDGACPEVKPVDNFDWSQYHGKWWEVAKCPSGKGRAGKCGWAEFTPEGKSVKVSRYDVIPAPELFMEGTAYPVGDPKIGKIYHSRTNKGLTKKTVFNVLSTDNKNYIIGYSCKYGEDQKGHKDHVWVLSRSMVLTGEAKTAVENYLIGSPVVDSQKLVYSDFSEAACKVNN
# notes: as for B2
# B4: BBP mutein Fer-N21 (designed binder)
# chain: DVYHDGACPEVKPVDNFDWSQYHGKWWEVAKYPSNRGSKGKCGWAEYTPEGKSVKVSRYDVIPRLEAFMEGTAYPVGDSKIGKIYHSRTSKGKTKKTVFNVLSTDNKNYIIGYSCIYNERYKGHYDHVWVLSRSMVLTGEAKTAVENYLIGSPVVDSQKLVYSDFSEAACKVNN
# notes: as for B2
# B5: BBP mutein Fer-D24 (designed binder)
# chain: DVYHDGACPEVKPVDNFDWSQYHGKWWEVAKYPSKKGKQGKCGWAEYTPEGKSVKVSRYDVIPCLESFMEGTAYPVGDSKIGKIYHSRTKPGRTKKTVFNVPSTDNKNYIIGYSCVYPEGRKGHRDHVWVLSRSMVLTGEAKTAVENYLIGSPVVDSQKLVYSDFSEAACKVNN
# notes: Tested only in the screening ELISA (crude extract, pBBP47: C-terminal T7 tag and Strep-tag II); KD not given
# Experiments:
# [1] = biological target: T2, extracellular domain of human CD47 (amino acids 1 to 119 of the mature protein, Cys15 to Ala) with Strep-tag … (human, UniProt Q08722 19-139); assay: ELISA, CD47 coated on plate, mutein titrated from 2000 nM, anti-T7-HRP detection, apparent KD from curve fit
# T2 construct: Produced in the periplasm of E. coli JM83, purified by the Strep-tag II; 1-119 counts on the mature CD47; also called recombinant CD47
# Protocol: For the detection of binding in an ELISA the wells of a black Fluotrac 600 microtiter plate (Greiner; 384 well) were filled each with 20 μl of a solution of the intended recombinant protein target CD47 (produced as described in Example 2) or the unrelated control protein BSA both at a concentration of 50 μg/ml in PBS and were incubated for 1 h at ambient temperature. After washing five times with 100 μl PBST/0.05 per well employing an automated ELISA plate washer, the wells were filled with 100 μl PBST/0.05 3% w/v non-fat dry milk powder (Vitalia), in order to saturate unspecific binding sites and incubated for one hour at room temperature. After blocking, the microtiter plate was washed two times with 100 μl PBST/0.05 as described above.
# Then a dilution series of the muteins in SA-buffer from Example 7 was prepared in PBST starting from 2000 nM concentration and incubated for 1 h at room temperature. Subsequently, plates were washed again five times like above and 20 μl of an anti-T7 monoclonal antibody-HRP-conjugate, diluted 1:1000 in PBST, was added to each well and incubated for 1 hour at room temperature. […] After 10 minutes at room temperature fluorescence was excited at a wavelength of 320 nm (±12.5 nm) and measured at 430 nm (±17.5 nm) in a GENiosPlus plate reader. […]
# type I horse ferritin [2] = biological target: T3, type I horse ferritin (horse, UniProt P02791 2-175; Q8MIP0 2-182, limits assumed); assay: ELISA, ferritin coated on plate, mutein titrated from 1000 nM, anti-T7-HRP detection, apparent KD from curve fit
# T3 construct: the natural protein is a shell of light and heavy chains
# Protocol: (§1) Afterwards, the wells were washed and blocked as described in Example 8.
# (§2) Then, a dilution series of the BBP muteins from Example 11 in SA-buffer was prepared in PBST starting from 1000 nM concentration and incubated for 1 h at room temperature. Subsequently, plates were washed again five times, anti-T7 monoclonal antibody-HRP-conjugate was added and incubated for 1 hour at room temperature followed by washing and addition of fluorogenic HRP-substrate QuantaBlu™ as described in Example 8. After 10 minutes at room temperature fluorescence was excited at a wavelength of 320 nm (±12.5 nm) and measured at 430 nm (±17.5 nm) in a GENiosPlus plate reader.
# The resulting binding curves were fitted by non-linear least squares regression as described in Example 8 and are depicted in FIG. 8. The values obtained for the apparent dissociation constants of the complexes between the BBP muteins and the prescribed target ferritin are summarized in Table 5.
# RNaseB [3] = biological target: T1, RNaseB; assay: ELISA: RNaseB coated on the plate as control, BBP mutein titrated 0-1000 nM, detected with anti-T7 antibody-HRP, fluorescence (Example 12)
# Protocol: as §1, §2
# type I horse ferritin [4] = biological target: T3, type I horse ferritin; assay: high-throughput ELISA screening, crude cell extract, ferritin or aldolase coated on plate, anti-T7-HRP detection; Fer-P4 is one of the clones taken on from these 14
# Protocol: (§3) For the detection of binding, these cell extracts were tested for their reactivity on the prescribed target type I horse ferri tin as well as the unrelated control protein aldolase in ELISA experiments. Therefore, wells of black Fluotrac 600 ELISA plates (Greiner; 384 well) were coated overnight with 20 μl of a solution of ferritin (Sigma) or aldolase (Roche) at 4° C., each at a concentration of 20 μg/ml in PBS. Plates were washed five times with 100 μl PBST/0.05 per well with an automated ELISA plate washer (Molecular Devices) leaving a residual volume of 10 μl of the washing buffer in each well after the last washing step. Residual binding sites were blocked by incubation with 100 μl PBST/0.05 containing 2% w/v BSA for 2 h at room temperature. Afterwards, plates were again washed five times as described above.
# (§4) For complex formation between the BBP muteins and the immobilized proteins, the wells were incubated with 10 μl of the blocked cell extract from above for 1 hour at room temperature. […] After 60 minutes at room temperature fluorescence was excited at a wavelength of 320 nm (±12.5 nm) and measured at 430 nm (±17.5 nm) in a GENiosPlus plate reader (Tecan).
# RNaseB [5] = biological target: T1, RNaseB; assay: ELISA, RNaseB coated on plate, anti-T7-HRP detection
# Protocol: as §1, §2
# type I horse ferritin [6] = biological target: T3, type I horse ferritin; assay: high-throughput ELISA screening, crude cell extract, ferritin or aldolase coated on plate, anti-T7-HRP detection; Fer-O20 is one of the clones taken on from these 14
# Protocol: as §3, §4
# type I horse ferritin [7] = biological target: T3, type I horse ferritin; assay: high-throughput ELISA screening, crude cell extract, ferritin or aldolase coated on plate, anti-T7-HRP detection; Fer-N21 is one of the clones taken on from these 14
# Protocol: as §3, §4
# type I horse ferritin [8] = biological target: T3, type I horse ferritin; assay: high-throughput ELISA screening, crude cell extract, ferritin or aldolase coated on plate, anti-T7-HRP detection; Fer-D24 is one of the clones taken on from these 14
# Protocol: as §3, §4
# T3 sequence (P02791 2-175 limits assumed, chain 1 of 2): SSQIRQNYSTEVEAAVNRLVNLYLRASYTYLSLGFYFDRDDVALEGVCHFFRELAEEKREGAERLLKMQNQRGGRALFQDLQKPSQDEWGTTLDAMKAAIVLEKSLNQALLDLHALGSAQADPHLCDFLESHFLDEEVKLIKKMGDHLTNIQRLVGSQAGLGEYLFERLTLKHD
# T3 sequence (Q8MIP0 2-182 limits assumed, chain 2 of 2): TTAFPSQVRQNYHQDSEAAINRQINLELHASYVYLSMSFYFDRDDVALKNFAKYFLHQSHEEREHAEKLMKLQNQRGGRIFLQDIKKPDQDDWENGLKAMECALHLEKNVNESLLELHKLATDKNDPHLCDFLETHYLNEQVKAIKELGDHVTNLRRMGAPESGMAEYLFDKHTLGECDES
# T2 sequence (Q08722 other isoform, or with tags, fused parts or gaps limits assumed): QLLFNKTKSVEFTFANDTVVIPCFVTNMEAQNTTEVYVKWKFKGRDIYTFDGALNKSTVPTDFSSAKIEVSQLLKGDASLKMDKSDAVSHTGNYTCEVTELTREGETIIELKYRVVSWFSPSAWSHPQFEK
binder,measurement,setting,value
B1,Kd,[1],33 nM
B2,Kd,type I horse ferritin [2],31 nM
same,binding result,RNaseB [3],no binding (tested: 1000 nM)
same,signal-to-control ratio (ferritin against aldolase),type I horse ferritin [4],> 5
B3,binding result,RNaseB [5],no binding (tested: dilution series starting from 1000 nM)
same,Kd,type I horse ferritin [2],49 nM
same,signal-to-control ratio (ferritin against aldolase),type I horse ferritin [6],> 5
B4,binding result,RNaseB [5],no binding (tested: dilution series starting from 1000 nM)
same,Kd,type I horse ferritin [2],29 nM
same,signal-to-control ratio (ferritin against aldolase),type I horse ferritin [7],> 5
B5,signal-to-control ratio (ferritin against aldolase),type I horse ferritin [8],> 5
